According to the supplement of paper PMC9112550, “Optimization of the antimicrobial peptide Bac7 by deep mutational scanning” (BMC Biology, 2022):

Tested on: Escherichia coli TOP10
Experiment: shrunken log2 fold change of peptide-encoding DNA abundance (4.5 h post-induction vs induction); higher = less antimicrobial activity (less host growth inhibition)
Settings: time post-induction: 4.5 h; library: site-saturation at positions 5, 18, 19, 20
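Also: peptides expressed intracellularly from a pBAD plasmid library in pooled LB shake-flask culture, induced with 0.3% L-arabinose, DNA abundance read by NGS, three biological replicates, DESeq2 with apeglm shrinkage.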

RRIRHRPPRLPRPRPRPIMQPRP
shrunken log2 fold change: -0.228

RRIRHRPPRLPRPRPRPIMRPRP
shrunken log2 fold change: -0.0864

RRIRHRPPRLPRPRPRPIMWPRP
shrunken log2 fold change: -0.0163

RRIRHRPPRLPRPRPRPINCPRP
shrunken log2 fold change: 0.00172

RRIRHRPPRLPRPRPRPINFPRP
shrunken log2 fold change: -0.368

RRIRHRPPRLPRPRPRPIPVPRP
shrunken log2 fold change: -0.037

RRIRHRPPRLPRPRPRPIQAPRP
shrunken log2 fold change: -0.0107

RRIRHRPPRLPRPRPRPIQYPRP
shrunken log2 fold change: -0.122

RRIRHRPPRLPRPRPRPISHPRP
shrunken log2 fold change: -0.0873

RRIRHRPPRLPRPRPRPISMPRP
shrunken log2 fold change: -1.58

RRIRHRPPRLPRPRPRPITGPRP
shrunken log2 fold change: 0.015

RRIRHRPPRLPRPRPRPIVLPRP
shrunken log2 fold change: 0.00695

RRIRHRPPRLPRPRPRPIVPPRP
shrunken log2 fold change: 0.0781

RRIRHRPPRLPRPRPRPIYEPRP
shrunken log2 fold change: -0.234

RRIRHRPPRLPRPRPRPIYMPRP
shrunken log2 fold change: -0.0111

RRIRHRPPRLPRPRPRPIYTPRP
shrunken log2 fold change: -1.35

RRIRHRPPRLPRPRPRPKAAPRP
shrunken log2 fold change: 0.0902

RRIRHRPPRLPRPRPRPKADPRP
shrunken log2 fold change: 0.117

RRIRHRPPRLPRPRPRPKAHPRP
shrunken log2 fold change: -0.145

RRIRHRPPRLPRPRPRPKANPRP
shrunken log2 fold change: 0.174

RRIRHRPPRLPRPRPRPKAVPRP
shrunken log2 fold change: -0.00256

RRIRHRPPRLPRPRPRPKAYPRP
shrunken log2 fold change: 0.0124

RRIRHRPPRLPRPRPRPKCEPRP
shrunken log2 fold change: -0.148

RRIRHRPPRLPRPRPRPKDCPRP
shrunken log2 fold change: 0.00375

RRIRHRPPRLPRPRPRPKDEPRP
shrunken log2 fold change: 0.0349

RRIRHRPPRLPRPRPRPKFPPRP
shrunken log2 fold change: 0.442

RRIRHRPPRLPRPRPRPKGCPRP
shrunken log2 fold change: 0.031

RRIRHRPPRLPRPRPRPKGGPRP
shrunken log2 fold change: 0.0418

RRIRHRPPRLPRPRPRPKHTPRP
shrunken log2 fold change: -0.104

RRIRHRPPRLPRPRPRPKKCPRP
shrunken log2 fold change: -0.225

RRIRHRPPRLPRPRPRPKKSPRP
shrunken log2 fold change: -0.0145

RRIRHRPPRLPRPRPRPKLNPRP
shrunken log2 fold change: -0.248

RRIRHRPPRLPRPRPRPKNEPRP
shrunken log2 fold change: -0.476

RRIRHRPPRLPRPRPRPKRVPRP
shrunken log2 fold change: -0.0983

RRIRHRPPRLPRPRPRPKSFPRP
shrunken log2 fold change: -0.0233

RRIRHRPPRLPRPRPRPKSRPRP
shrunken log2 fold change: -0.0231

RRIRHRPPRLPRPRPRPKTQPRP
shrunken log2 fold change: -0.15

RRIRHRPPRLPRPRPRPKTSPRP
shrunken log2 fold change: -0.0692

RRIRHRPPRLPRPRPRPKWDPRP
shrunken log2 fold change: -0.00576

RRIRHRPPRLPRPRPRPKWHPRP
shrunken log2 fold change: -0.108

RRIRHRPPRLPRPRPRPKWIPRP
shrunken log2 fold change: -0.779

RRIRHRPPRLPRPRPRPKYAPRP
shrunken log2 fold change: -0.0413

RRIRHRPPRLPRPRPRPLAQPRP
shrunken log2 fold change: 0.00325

RRIRHRPPRLPRPRPRPLDHPRP
shrunken log2 fold change: -0.34

RRIRHRPPRLPRPRPRPLDYPRP
shrunken log2 fold change: -0.0824

RRIRHRPPRLPRPRPRPLECPRP
shrunken log2 fold change: -0.257

RRIRHRPPRLPRPRPRPLELPRP
shrunken log2 fold change: -0.0293

RRIRHRPPRLPRPRPRPLHEPRP
shrunken log2 fold change: 0.0601

RRIRHRPPRLPRPRPRPLHVPRP
shrunken log2 fold change: 0.146

RRIRHRPPRLPRPRPRPLIHPRP
shrunken log2 fold change: -0.575

RRIRHRPPRLPRPRPRPLKCPRP
shrunken log2 fold change: -0.024

RRIRHRPPRLPRPRPRPLKDPRP
shrunken log2 fold change: -0.361

RRIRHRPPRLPRPRPRPLKRPRP
shrunken log2 fold change: -0.00686

RRIRHRPPRLPRPRPRPLLPPRP
shrunken log2 fold change: -0.0821

RRIRHRPPRLPRPRPRPLMDPRP
shrunken log2 fold change: -0.974

RRIRHRPPRLPRPRPRPLNGPRP
shrunken log2 fold change: -0.178

RRIRHRPPRLPRPRPRPLNRPRP
shrunken log2 fold change: 0.0215

RRIRHRPPRLPRPRPRPLPCPRP
shrunken log2 fold change: -0.0645

RRIRHRPPRLPRPRPRPLQMPRP
shrunken log2 fold change: -0.147

RRIRHRPPRLPRPRPRPLRFPRP
shrunken log2 fold change: -0.172

RRIRHRPPRLPRPRPRPLRGPRP
shrunken log2 fold change: 1.02

RRIRHRPPRLPRPRPRPLSGPRP
shrunken log2 fold change: -0.35

RRIRHRPPRLPRPRPRPLSWPRP
shrunken log2 fold change: 0.146

RRIRHRPPRLPRPRPRPLTCPRP
shrunken log2 fold change: -0.0216

RRIRHRPPRLPRPRPRPLTTPRP
shrunken log2 fold change: -0.142

RRIRHRPPRLPRPRPRPLVIPRP
shrunken log2 fold change: -0.343

RRIRHRPPRLPRPRPRPLVNPRP
shrunken log2 fold change: -0.117

RRIRHRPPRLPRPRPRPLVTPRP
shrunken log2 fold change: 1.93

RRIRHRPPRLPRPRPRPLVWPRP
shrunken log2 fold change: 0.482

RRIRHRPPRLPRPRPRPLVYPRP
shrunken log2 fold change: -0.0877

RRIRHRPPRLPRPRPRPLWTPRP
shrunken log2 fold change: -0.174

RRIRHRPPRLPRPRPRPLYQPRP
shrunken log2 fold change: -0.112

RRIRHRPPRLPRPRPRPMAAPRP
shrunken log2 fold change: 0.53

RRIRHRPPRLPRPRPRPMAEPRP
shrunken log2 fold change: -0.165

RRIRHRPPRLPRPRPRPMAGPRP
shrunken log2 fold change: -0.0581

RRIRHRPPRLPRPRPRPMETPRP
shrunken log2 fold change: -0.0865

RRIRHRPPRLPRPRPRPMFRPRP
shrunken log2 fold change: -0.422

RRIRHRPPRLPRPRPRPMFTPRP
shrunken log2 fold change: -0.102

RRIRHRPPRLPRPRPRPMFVPRP
shrunken log2 fold change: 0.0711

RRIRHRPPRLPRPRPRPMGDPRP
shrunken log2 fold change: -0.0774

RRIRHRPPRLPRPRPRPMHQPRP
shrunken log2 fold change: -0.108

RRIRHRPPRLPRPRPRPMIDPRP
shrunken log2 fold change: -0.161

RRIRHRPPRLPRPRPRPMIPPRP
shrunken log2 fold change: 0.132

RRIRHRPPRLPRPRPRPMKDPRP
shrunken log2 fold change: -0.778

RRIRHRPPRLPRPRPRPMKIPRP
shrunken log2 fold change: -0.0248

RRIRHRPPRLPRPRPRPMKSPRP
shrunken log2 fold change: -0.00231

RRIRHRPPRLPRPRPRPMLKPRP
shrunken log2 fold change: -0.164

RRIRHRPPRLPRPRPRPMLLPRP
shrunken log2 fold change: 0.0408

RRIRHRPPRLPRPRPRPMLMPRP
shrunken log2 fold change: -0.121

RRIRHRPPRLPRPRPRPMLWPRP
shrunken log2 fold change: 0.0253

RRIRHRPPRLPRPRPRPMMFPRP
shrunken log2 fold change: -0.18

RRIRHRPPRLPRPRPRPMMIPRP
shrunken log2 fold change: 0.00431

RRIRHRPPRLPRPRPRPMPKPRP
shrunken log2 fold change: 0.193

RRIRHRPPRLPRPRPRPMPMPRP
shrunken log2 fold change: 0.0326

RRIRHRPPRLPRPRPRPMPPPRP
shrunken log2 fold change: 0.00237

RRIRHRPPRLPRPRPRPMRGPRP
shrunken log2 fold change: 0.384

RRIRHRPPRLPRPRPRPMSDPRP
shrunken log2 fold change: 0.00234

RRIRHRPPRLPRPRPRPMSVPRP
shrunken log2 fold change: -0.294

RRIRHRPPRLPRPRPRPMTDPRP
shrunken log2 fold change: -0.898

RRIRHRPPRLPRPRPRPMWAPRP
shrunken log2 fold change: -0.0936

RRIRHRPPRLPRPRPRPNAHPRP
shrunken log2 fold change: -0.0872

RRIRHRPPRLPRPRPRPNAQPRP
shrunken log2 fold change: -0.00277

RRIRHRPPRLPRPRPRPNDMPRP
shrunken log2 fold change: -0.26

RRIRHRPPRLPRPRPRPNDTPRP
shrunken log2 fold change: -0.933

RRIRHRPPRLPRPRPRPNFWPRP
shrunken log2 fold change: 0.257

RRIRHRPPRLPRPRPRPNGDPRP
shrunken log2 fold change: -0.0512

RRIRHRPPRLPRPRPRPNIFPRP
shrunken log2 fold change: -0.0903

RRIRHRPPRLPRPRPRPNIQPRP
shrunken log2 fold change: -0.141

RRIRHRPPRLPRPRPRPNKDPRP
shrunken log2 fold change: -0.507

RRIRHRPPRLPRPRPRPNKSPRP
shrunken log2 fold change: -0.252

RRIRHRPPRLPRPRPRPNLPPRP
shrunken log2 fold change: -0.57

RRIRHRPPRLPRPRPRPNMLPRP
shrunken log2 fold change: -0.387

RRIRHRPPRLPRPRPRPNMQPRP
shrunken log2 fold change: -0.0674

RRIRHRPPRLPRPRPRPNMYPRP
shrunken log2 fold change: -0.963

RRIRHRPPRLPRPRPRPNNDPRP
shrunken log2 fold change: -0.727

RRIRHRPPRLPRPRPRPNNTPRP
shrunken log2 fold change: -0.931

RRIRHRPPRLPRPRPRPNPDPRP
shrunken log2 fold change: -0.0353

RRIRHRPPRLPRPRPRPNPMPRP
shrunken log2 fold change: -0.00731

RRIRHRPPRLPRPRPRPNRYPRP
shrunken log2 fold change: -0.398

RRIRHRPPRLPRPRPRPNSCPRP
shrunken log2 fold change: -0.089

RRIRHRPPRLPRPRPRPNSTPRP
shrunken log2 fold change: -1.48

RRIRHRPPRLPRPRPRPNTMPRP
shrunken log2 fold change: -0.905

RRIRHRPPRLPRPRPRPNTRPRP
shrunken log2 fold change: -0.28

RRIRHRPPRLPRPRPRPNWEPRP
shrunken log2 fold change: -0.0833

RRIRHRPPRLPRPRPRPNWMPRP
shrunken log2 fold change: 0.00348

RRIRHRPPRLPRPRPRPNWTPRP
shrunken log2 fold change: -0.0102

RRIRHRPPRLPRPRPRPPAKPRP
shrunken log2 fold change: 0.539

RRIRHRPPRLPRPRPRPPCVPRP
shrunken log2 fold change: -0.108

RRIRHRPPRLPRPRPRPPDFPRP
shrunken log2 fold change: 0.0633

RRIRHRPPRLPRPRPRPPEEPRP
shrunken log2 fold change: 0.791

RRIRHRPPRLPRPRPRPPEIPRP
shrunken log2 fold change: 0.0979

RRIRHRPPRLPRPRPRPPESPRP
shrunken log2 fold change: 0.211

RRIRHRPPRLPRPRPRPPFEPRP
shrunken log2 fold change: 0.161

RRIRHRPPRLPRPRPRPPFFPRP
shrunken log2 fold change: 0.168

RRIRHRPPRLPRPRPRPPFGPRP
shrunken log2 fold change: -0.0898

RRIRHRPPRLPRPRPRPPFKPRP
shrunken log2 fold change: 0.332

RRIRHRPPRLPRPRPRPPGGPRP
shrunken log2 fold change: 0.443

RRIRHRPPRLPRPRPRPPHWPRP
shrunken log2 fold change: 0.375

RRIRHRPPRLPRPRPRPPIDPRP
shrunken log2 fold change: 0.065

RRIRHRPPRLPRPRPRPPIMPRP
shrunken log2 fold change: -0.285

RRIRHRPPRLPRPRPRPPKCPRP
shrunken log2 fold change: 0.145

RRIRHRPPRLPRPRPRPPKLPRP
shrunken log2 fold change: 0.12

RRIRHRPPRLPRPRPRPPKPPRP
shrunken log2 fold change: 0.116

RRIRHRPPRLPRPRPRPPLVPRP
shrunken log2 fold change: 0.0953

RRIRHRPPRLPRPRPRPPMFPRP
shrunken log2 fold change: -0.214

RRIRHRPPRLPRPRPRPPMLPRP
shrunken log2 fold change: 0.0935

RRIRHRPPRLPRPRPRPPMQPRP
shrunken log2 fold change: 0.268

RRIRHRPPRLPRPRPRPPNTPRP
shrunken log2 fold change: -0.0573

RRIRHRPPRLPRPRPRPPPCPRP
shrunken log2 fold change: 0.603

RRIRHRPPRLPRPRPRPPRTPRP
shrunken log2 fold change: 1.03
